Source: the supplement of paper PMC7877785
± gives the uncertainty stated by the source.

Assay: self-splicing fitness, log relative to wild type (ln ratio); higher = more splicing; Tetrahymena group I intron in knt gene, E. coli kanamycin selection, DiMSum; sequences stand for … in CUCUCU…GGAGGGAAAAGUUAUCAGGCAUGCACCUGGUAGCUAGUCUUUAAACCAAUAGAUUGCAUCGGUUUAAAAGGCAAGACCGUCAAAUUGCGGGAAAGGGGUCAACAGCCGUUCAGUACCAAGUCUCAGGGGAAACUUUGAGAUGGCCUUGCAAAGGGUAUGGUAAUAAGCUGACGGACAUGGUCCUAACCACGCAGCCAAGUCCUAAGUCAACAGAUCUUCUGUUGAUAUGGAUGCAGUUCACAGACUAAAUGUCGGUCGGGGAAGAUGUAUUCUUCUCAUAAGAUAUAGUCGGACCUCUCCUUAAUGGGAGCUAGCGGAUGAAGUGAUGCAACACUGGAGCCGCUGGGAACUAAUUUGUAUGCGAAAGUAUAUUGAUUAGUUUUGGAGUACUCGUGGUCG
Summary of the method: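 The eight P1ex-region nucleotides of an intron in the knt kanamycin-resistance gene on pET-22b(+) were all randomised and the library put into E. coli BL21(DE3). Six replicate transformations were grown overnight at 37°C or 30°C on LB agar with or without 25 μg/mL kanamycin, together with 100 μg/mL carbenicillin, 50 μM IPTG and 0.2% rhamnose. Colonies were pooled and amplicon-sequenced on an Illumina HiSeq 2500. Fitness from DiMSum is the error-weighted combination of wild-type-normalised replicate fold changes, kanamycin over none.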

Sequence	self-splicing fitness (ln) (30 °C)	self-splicing fitness (ln) (37 °C)
GGUUAGCAAUAUUACGUAGU	-1.03 ± 0.097	-0.417 ± 0.12
GGUUAGCAAUAUUACGUGUA	-1.7 ± 0.13	-0.817 ± 0.1
GGUUAGCAAUAUUACGUUGC	-2.41 ± 0.22	-1.12 ± 0.42
GUAAAGCAAUAUUACGAAGA	-1.9 ± 0.1	-1.03 ± 0.12
GUAAAGCAAUAUUACGACCG	-0.799 ± 0.43	-0.23 ± 0.36
GUAAAGCAAUAUUACGAGAA	-2.06 ± 0.14	-0.181 ± 0.21
GUAAAGCAAUAUUACGAUAA	-0.115 ± 0.076	0.632 ± 0.11
GUAAAGCAAUAUUACGAUGU	-0.534 ± 0.081	-0.0801 ± 0.1
GUAAAGCAAUAUUACGCACC	-0.664 ± 0.49	
GUAAAGCAAUAUUACGCCUC	-0.782 ± 0.12	0.463 ± 0.16
GUAAAGCAAUAUUACGCGCC	-2.22 ± 0.2	-1.03 ± 0.23
GUAAAGCAAUAUUACGGAAG	-2.86 ± 0.18	-1.36 ± 0.15
GUAAAGCAAUAUUACGGAGG	-3.29 ± 0.37	-2.45 ± 0.38
GUAAAGCAAUAUUACGGAGU	-3.08 ± 0.26	-2.81 ± 0.29
GUAAAGCAAUAUUACGGGCA	-0.131 ± 0.13	-0.0319 ± 0.15
GUAAAGCAAUAUUACGGGGG	-3.31 ± 0.18	-2.87 ± 0.31
GUAAAGCAAUAUUACGGUAA	-1.09 ± 0.086	-0.336 ± 0.11
GUAAAGCAAUAUUACGUAGU	-2.42 ± 0.12	-1.36 ± 0.18
GUAAAGCAAUAUUACGUCCG	-0.907 ± 0.088	-0.395 ± 0.14

Sequence	self-splicing fitness (ln) (30 °C)	self-splicing fitness (ln) (37 °C)
GUAAAGCAAUAUUACGUGCA	0.139 ± 0.058	0.551 ± 0.093
GUAAAGCAAUAUUACGUGUA	-1.44 ± 0.064	-0.702 ± 0.087
GUAAAGCAAUAUUACGUUGU	-3.6 ± 0.17	-2.13 ± 0.19
GUAAAGCAAUAUUACGUUUA	-1.08 ± 0.077	-0.69 ± 0.11
GUACAGCAAUAUUACGAAAG	-3.47 ± 0.1	-1.04 ± 0.092
GUACAGCAAUAUUACGAAGC	-1.83 ± 0.17	-1.5 ± 0.28
GUACAGCAAUAUUACGAAGG		-0.639 ± 0.25
GUACAGCAAUAUUACGAGAU	-3.53 ± 0.16	-2.03 ± 0.11
GUACAGCAAUAUUACGAGCC	-1.6 ± 0.36	-2.01 ± 0.46
GUACAGCAAUAUUACGAUAU	-2.07 ± 0.1	-1.48 ± 0.13
GUACAGCAAUAUUACGAUGA	-1.87 ± 0.097	-0.889 ± 0.11
GUACAGCAAUAUUACGAUGU	-1.33 ± 0.081	0.106 ± 0.088
GUACAGCAAUAUUACGCACA	-1.52 ± 0.11	-0.471 ± 0.11
GUACAGCAAUAUUACGCCAG	-3.75 ± 0.24	-2.32 ± 0.45
GUACAGCAAUAUUACGCCUC	-0.924 ± 0.14	-0.219 ± 0.16
GUACAGCAAUAUUACGCCUU	-1.23 ± 0.095	-0.531 ± 0.11
GUACAGCAAUAUUACGCGUC	-3.1 ± 0.21	-0.709 ± 0.14
GUACAGCAAUAUUACGCUCC	-1.81 ± 0.29	-0.404 ± 0.23
GUACAGCAAUAUUACGCUUA	-1.58 ± 0.08	-1.03 ± 0.091
